Target: HA-Ras (wild-type) (UniProt P01112)
Chain of UniProt P01112 (P01112 whole entry, looked up): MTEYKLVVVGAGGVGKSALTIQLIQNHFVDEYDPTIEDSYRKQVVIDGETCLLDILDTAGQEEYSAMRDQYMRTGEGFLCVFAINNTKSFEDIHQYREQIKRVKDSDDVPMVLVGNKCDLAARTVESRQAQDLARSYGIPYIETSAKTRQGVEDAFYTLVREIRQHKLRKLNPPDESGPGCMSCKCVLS

Flag-SOS
amount of GTP-bound HA-Ras (32-PO4 labeling, a-HA immunoprecipitation, TLC): expression of Flag-SOS significantly increased the amount of GTP-bound HA-Ras

From US20020150566
